Laboratory results from PMC7672443, “Structural basis of the XPB helicase–Bax1 nuclease complex interacting with the repair bubble DNA” (Nucleic Acids Research, 2020).
Residue numbers refer to the chain shown, from its start.

Tests used:
StXPB-Bax1^ΔC = biological target: T1, StXPB-Bax1^ΔC (Sulfurisphaera tokodaii, UniProt Q970I2); conditions: phosphate in the ATP-binding site of XPB, DNA-free heterodimer; NH4-citrate pH 7.5, PEG3350
T1 construct: gene xpb2

StXPB [1] = biological target: T2, StXPB (Sulfurisphaera tokodaii, UniProt Q970I2 2-439); assay: EMSA; stable complex at high protein:DNA ratio; EMSA: 25 mM Tris-Cl pH 7.5, 100 mM NaCl, 5% glycerol, 1 mM DTT, room temperature 40 min; 0.8 uM forked DNA or 0.3 uM bubble DNA; 4% TBE native gel, ethidium bromide; conditions: protein: recombinant; tags: N-terminal His8 (PreScission; removed); 3 nt mismatch bubble
T2 sequence: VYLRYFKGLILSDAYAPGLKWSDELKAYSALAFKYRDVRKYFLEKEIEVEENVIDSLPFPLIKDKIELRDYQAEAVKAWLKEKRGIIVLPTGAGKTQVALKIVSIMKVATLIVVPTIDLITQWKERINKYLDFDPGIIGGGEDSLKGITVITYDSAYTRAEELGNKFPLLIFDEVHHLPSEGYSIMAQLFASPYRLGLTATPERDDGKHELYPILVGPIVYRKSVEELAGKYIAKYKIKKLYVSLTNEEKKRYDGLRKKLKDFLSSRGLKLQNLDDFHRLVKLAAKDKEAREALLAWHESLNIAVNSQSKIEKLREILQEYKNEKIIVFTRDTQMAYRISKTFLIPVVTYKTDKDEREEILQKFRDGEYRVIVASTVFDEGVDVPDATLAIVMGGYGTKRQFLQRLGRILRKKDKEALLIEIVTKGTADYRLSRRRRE

StXPB [2] = biological target: T2, StXPB; assay: EMSA; stable complex; EMSA: 25 mM Tris-Cl pH 7.5, 100 mM NaCl, 5% glycerol, 1 mM DTT, room temperature 40 min; 0.8 uM forked DNA or 0.3 uM bubble DNA; 4% TBE native gel, ethidium bromide; conditions: protein: recombinant, tags: N-terminal His8 (PreScission; removed)
StXPB [3] = biological target: T2, StXPB; assay: EMSA; lower affinity than with Bax1; EMSA: 25 mM Tris-Cl pH 7.5, 100 mM NaCl, 5% glycerol, 1 mM DTT, room temperature 40 min; 0.8 uM forked DNA or 0.3 uM bubble DNA; 4% TBE native gel, ethidium bromide; conditions: protein: recombinant; tags: N-terminal His8 (PreScission; removed); fork: 22 bp duplex, 10 nt arms

T1 sequence (Q970I1 2-373 partner, one chain of several): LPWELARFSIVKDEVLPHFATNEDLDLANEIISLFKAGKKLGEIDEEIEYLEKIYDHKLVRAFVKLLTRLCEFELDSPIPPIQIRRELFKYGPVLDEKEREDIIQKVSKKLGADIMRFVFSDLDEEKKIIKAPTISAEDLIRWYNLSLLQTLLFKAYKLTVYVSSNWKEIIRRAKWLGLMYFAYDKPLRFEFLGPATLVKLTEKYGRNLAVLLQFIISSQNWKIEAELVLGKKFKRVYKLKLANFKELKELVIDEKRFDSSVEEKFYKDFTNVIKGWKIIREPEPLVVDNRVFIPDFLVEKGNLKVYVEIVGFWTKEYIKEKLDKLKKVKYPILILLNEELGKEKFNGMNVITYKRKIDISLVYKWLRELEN

**Q.** For `O=P(O)(O)O` [phosphate ion], which “X-ray crystallography, 2.96 Å” value (StXPB-Bax1^ΔC) is on record?
**A.** Its value is “the ATP binding site of XPB contains a bound phosphate ion”.

B1: bubble-3 DNA (dsDNA)
DNA 1: TAGTCACAGCTGATTTTGCTCTGCTCCATAGT
DNA 2: ACTATGGAGCAGAGCTTTATCAGCTGTGACTA
**Q.** Does B1 bind (StXPB [1])?
**A.** Result: binds

B2: bubble-4 DNA (dsDNA)
DNA 1: B1 DNA 1 with G18T
DNA 2: B1 DNA 2 with C15T
**Q.** Does B2 bind (StXPB [2]; 4 nt mismatch bubble)?
**A.** Result: binds

B3: bubble-5 DNA (dsDNA)
DNA 1: B1 DNA 1 with G18T
DNA 2: B1 DNA 2 with C15T, A19T
**Q.** Does B3 bind (StXPB [2]; 32 nt strands, blunt, internal 5 nt T:T mismatch bubble)?
**A.** Result: binds

B4: forked DNA (dsDNA)
DNA 1: B1 DNA 1 with T16G, T17C
DNA 2: TGATACTTCGAGAGCGCAATCAGCTGTGACTA
**Q.** Does B4 bind (StXPB [3])?
**A.** Result: binds
